From US10568344B2, “Methods of improving animal performance” (Novozymes A/S, priority 2015, dated 2020)
Where two headings read alike, the source gives them in different places. Marks after values point to notes of the source that are not given here.

Assays:
[1] = system: Exiguobacterium undae (DSM14481); test: Lysozyme activity turbidity assay (optical density drop); assay type: biochemical; details: pH 6
[2] = system: Micrococcus lysodeikticus ATTC No. 4698; test: as above; details: pH 6
[3] = In vivo piglet trial, growth performance; design: species or system weaned piglets
Procedure: The trial was performed from Oct. 23 to Dec. 4, 2014 at the Research Center for Animal Nutrition (DSM Nutritional Products France, F-68305 Village-Neuf) according to the official French guidelines for experiments with live animals. One hundred and four castrated male crossbred (Large-White (female)×Redon (male)) weaned piglets having 28 days of age supplied by the commercial farm “[…] du Rhin” located in Balgau (France), were used in a 42-day experiment. The initial bodyweight of the piglets was 7.88±0.675 kg. They were sorted by body weight into 32 groups of 3 or 4 piglets and randomly allotted to each dietary treatment. Each group of animals was placed in one flat-deck cages and allocated to one of the different treatments. Each treatment was replicated with 8 cages using a total of 26 animals (6 cages of 3 animals/treatment and 2 cages of 4 animals/treatment) per treatment. […] Animals were housed in an environmentally controlled room. Room temperature was initially 27° C. and was lowered weekly by about 2° C. until 21-22° C. and relative humidity percentage was 50%. The experimental diets (Pre-Starter and Starter) were fed ad libitum in two feeding phases from day 0 to 14 (phase 1, Pre-starter) and day 14 to 42 (phase 2, Starter). The ingredient composition and the calculated nutrient levels of the experimental diets for phases 1 and 2 are presented in table 11. Both diets were formulated to meet the animals' requirements according NRC (2012) and were fed in pelleted form. Pelleting conditions were at 70° C. for 30 seconds. […] No additional enzymes (e.g. phytase) were added to the feed. […] Appropriate amount of the liquid preparations of lysozyme was diluted in water and sprayed onto the respective pelleted feed to get the final concentrations in the feed corresponding to the different treatments. For procedural balance of all treatments the same volume of water were also sprayed onto the pellets of the control diets. Body weight of the individual animals and feed consumption per pen were recorded on days 14 and 42 of the study. […] The experimental unit was the piglet, except for ADFI and FCR which were measured by cage, and in both cases, treatment was used as class variable. One-factorial ANOVA and Student-Newman-Keuls test was used to assess differences among means in treatment groups.

[4] = In vivo broiler trial 3, growth performance; design: species or system male broiler chickens; Motality: unit not given here
Procedure: The in vivo trial was carried out as described in example 7, except the feed was supplemented with the GH25 lysozyme (SEQ ID NO: 1) at 12.5 or 25 mg per kg feed, the GH24 lysozyme (SEQ ID NO: 4) at 12.5 or 25 mg per kg feed or with Avilamycin at an inclusion level of 10 mg/kg. No additional enzymes (e.g. phytase) were added to the feed. The experimental diets (Starter, Grower and Finisher) were based on soybean meal, wheat and rye (12%) as main ingredients (Table 8). The diets were formulated to contain 225 g crude protein and 12.5 MJ/kg MEN for the starter period, 215 g crude protein and 12.8 MJ/kg MEN for the grower period and 205 g crude protein and 13.0 MJ/kg MEN for the finisher period.

[5] = system: Clostridium perfringens DSM756; assay type: cell-based; details: for Diameter of clearing zone: lysozymes 100 μg/ml, bacitracin 50 μg/ml
[6] = Finisher (d 36-42), 12.5 mg/kg feed
[7] = Finisher (d 36-42), 25 mg/kg feed
[8] = Grower (d 22-36), 12.5 mg/kg feed
[9] = Grower (d 22-36), 25 mg/kg feed
[10] = Starter (d 1-22), 12.5 mg/kg feed
[11] = Starter (d 1-22), 25 mg/kg feed
[12] = Whole period (d 1-42), 12.5 mg/kg feed
[13] = Whole period (d 1-42), 25 mg/kg feed

B1: SEQ ID NO: 4: mature amino acid sequence of a wild type GH24 lysozyme from Trichophaea saccata (protein, listed as Trichophaea saccata)
chain: YPVKTDLHCRSSPSTSASIVRTYSSGTEVQIQCQTTGTSVQGSNVWDKTQHGCYVADYYVKTGHSGIFTTKCGSSSGGGSCKPPPINAATVALIKEFEGFVPKPAPDPIGLPTVGYGHLCKTKGCKEVPYSFPLTQETATKLLQSDIKTFTSCVSNYVKDSVKLNDNQYGALASWAFNVGCGNVQTSSLIKRLNAGENPNTVAAQELPKWKYAGGKVMPGLVRRRNAEVALFKKPSSVQAHPPKC
modifications: mat_peptide (1)..(245)
Lysozyme activity as measured by Optical Density Drop [1]: ++ (pH 6)
Lysozyme activity as measured by Optical Density Drop [2]: ++ (pH 6)
ADFI, % relative NC ([3]; day 0-14, 50 ppm): 92.5%
ADFI, Mean ([3]; day 0-14, 50 ppm): 333 g/day
ADWG, % relative NC ([3]; day 0-14, 50 ppm): 91.4%
ADWG, Mean ([3]; day 0-14, 50 ppm): 265 g/day
FCR, % relative NC ([3]; day 0-14, 50 ppm): 102.6%
FCR, Mean ([3]; day 0-14, 50 ppm): 1.272^b
ADFI, % relative NC ([3]; day 0-42, 50 ppm): 100.8%
ADFI, Mean ([3]; day 0-42, 50 ppm): 740^b g/d
ADWG, % relative NC ([3]; day 0-42, 50 ppm): 107.8%
ADWG, Mean ([3]; day 0-42, 50 ppm): 538 g/day
EPEF, % relative NC ([3]; day 0-42, 50 ppm): 115.3%
EPEF, Mean ([3]; day 0-42, 50 ppm): 391
FCR, % relative NC ([3]; day 0-42, 50 ppm): 92.9%
FCR, Mean ([3]; day 0-42, 50 ppm): 1.379^a
ADFI, % relative NC ([3]; day 14-42, 50 ppm): 101.5%
ADFI, Mean ([3]; day 14-42, 50 ppm): 944^c g/d
ADWG, % relative NC ([3]; day 14-42, 50 ppm): 111.8%
ADWG, Mean ([3]; day 14-42, 50 ppm): 674 g/day
FCR, % relative NC ([3]; day 14-42, 50 ppm): 90.9%
FCR, Mean ([3]; day 14-42, 50 ppm): 1.404^a
Improvement on FCR compared to the negative control ([3]; overall period (day 0 to day 42), 50 mg/kg): 7.1%
Improvement to FCR compared to NC ([3]; starter period, day 15 to day 42, 50 mg/kg): 9.1%
Improvement of ADWG compared to the negative control diet ([3]; starter period, 50 mg/kg): 11.8%
EPEF improvement compared to the negative control ([3]; whole period, 50 mg/kg): 15.3%
Improvement of ADWG compared to the negative control diet ([3]; whole period, 50 mg/kg): 7.8%
Benefit over the NC diet ([4]; 12.5 mg/kg): did not show any benefit
FCR [4, 6]: 1.969
FCR, Relative to C (%) [4, 6]: 100.4%
Feed intake [4, 6]: 1560 g/b
Feed intake, Relative to C (%) [4, 6]: 104.8%
Weight gain [4, 6]: 795 g/b
Weight gain, Relative to C (%) [4, 6]: 104.4%
FCR [4, 7]: 1.919
FCR, Relative to C (%) [4, 7]: 97.9%
Feed intake [4, 7]: 1524 g/b
Feed intake, Relative to C (%) [4, 7]: 102.5%
Weight gain [4, 7]: 800 g/b
Weight gain, Relative to C (%) [4, 7]: 105.1%
FCR [4, 8]: 1.692
FCR, Relative to C (%) [4, 8]: 98.2%
Feed intake [4, 8]: 2298 g/b
Feed intake, Relative to C (%) [4, 8]: 100.5%
Weight gain [4, 8]: 1359 g/b
Weight gain, Relative to C (%) [4, 8]: 102.4%
FCR [4, 9]: 1.714
FCR, Relative to C (%) [4, 9]: 99.5%
Feed intake [4, 9]: 2336 g/b
Feed intake, Relative to C (%) [4, 9]: 102.2%
Weight gain [4, 9]: 1364 g/b
Weight gain, Relative to C (%) [4, 9]: 102.7%
FCR [4, 10]: 1.469
FCR, Relative to C (%) [4, 10]: 102.0%
Feed intake [4, 10]: 1608 g/b
Feed intake, Relative to C (%) [4, 10]: 101.9%
Weight gain [4, 10]: 1095 g/b
Weight gain, Relative to C (%) [4, 10]: 99.9%
FCR [4, 11]: 1.414
FCR, Relative to C (%) [4, 11]: 98.1%
Feed intake [4, 11]: 1603 g/b
Feed intake, Relative to C (%) [4, 11]: 101.6%
Weight gain [4, 11]: 1133 g/b
Weight gain, Relative to C (%) [4, 11]: 103.4%
EPEF [4, 12]: 408
EPEF, Relative to C (%) [4, 12]: 97.6%
FCR [4, 12]: 1.683
FCR, Relative to C (%) [4, 12]: 100.2%
Feed intake [4, 12]: 5466 g/b
Feed intake, Relative to C (%) [4, 12]: 102.1%
Motality [4, 12]: 11.3
Weight gain [4, 12]: 3249 g/b
Weight gain, Relative to C (%) [4, 12]: 102.0%
EPEF [4, 13]: 425
EPEF, Relative to C (%) [4, 13]: 101.7%
FCR [4, 13]: 1.657
FCR, Relative to C (%) [4, 13]: 98.6%
Feed intake [4, 13]: 5450 g/b
Feed intake, Relative to C (%) [4, 13]: 101.9%
Motality [4, 13]: 10.0
Weight gain [4, 13]: 3290 g/b
Weight gain, Relative to C (%) [4, 13]: 103.3%
EPEF improvement compared to NC diet ([4]; whole period, 25 mg/kg): 2.4%
FCR improvement compared to NC diet ([4]; whole period, 25 mg/kg): 1.2%
Diameter of clearing zone ([5]; Experiment 1, 1/2 MHB pH 6): 11 mm
Diameter of clearing zone ([5]; Experiment 1, 1/10 MHB pH 7): 9 mm
Diameter of clearing zone ([5]; Experiment 2, 1/2 MHB pH 6): 10 mm
Diameter of clearing zone ([5]; Experiment 2, 1/10 MHB pH 7): 8 mm
Zones around the wells challenged with the enzyme ([5]; both conditions tested (1/10 MHB pH 7 and ½ MHB pH 6)): 8-11 mm
